The values below come from patent US20250368686A1 (OKINAWA INSTITUTE OF SCIENCE AND TECHNOLOGY SCHOOL, published 2025).

Series [1] concerns the molecule itself. Kind of series: calculated from KD (FIG. 2-4f).
Procedure: Accordingly, by subtracting the signal intensity after the quencher addition from that before the addition, we evaluated the percentages of the OPR molecules remaining in the PM (FIG. 2-s9; FIG. 2-5a). The time courses of the OPR numbers remaining in the PM after time 0 were examined in both the presence and absence of 0.2 μM agonists and ˜3 μM FAM-Xpep-TATs in the cytoplasm (FIG. 2-5b).
Series [2] concerns the molecule itself. Kind of series: inverse of the homodimer lifetime; after DAMGO.
Series [3] deals with the molecule itself. The series is described as follows: cell-based or functional assay.
Series [4] deals with the molecule itself. Kind of series: inverse of the homodimer lifetime; no agonist.
Series [5] concerns the molecule itself. Kind of series: calculated from the equilibrium constants; after DAMGO.
Procedure: (§1) The ratios of molecules that exist as dimers vs. monomers (D/M ratios) in terms of the number of protomers were calculated from KD at various expression levels (number density of molecules) (FIG. 2-4e, f). […] When they dissociate into monomers, they will again form dimers, but the rate of dimer formation depends on the number density of the monomers (and thus the expression levels).
(§2) The ratios of the numbers of protomers that exist as dimers vs. monomers at different expression levels in the PM were calculated from the three dynamic equilibrium constants and listed.
Series [6] concerns the molecule itself. The series is described as follows: calculated from the equilibrium constants; no agonist.
Procedure: as §1, §2
Series [7] concerns the molecule itself. The series is described as follows: calculated from the equilibrium constants; after U-50488.
Procedure: as §1, §2
Series [8] concerns the molecule itself. The series is described as follows: inverse of the homodimer lifetime; after U-50488.
Series [9] deals with the molecule itself. The series is described as follows: calculated from the equilibrium constants; after SNC-80.
Procedure: as §1, §2
Series [10] deals with the molecule itself. Kind of series: inverse of the homodimer lifetime; after SNC-80.
Series [11] deals with the molecule itself. Kind of series: colocalization durations; SNC-80 and FAM-Dpep-TAT present.
Series [12] addresses T1, µ-type opioid receptor (MOR), rat, wild type, fluorescently tagged, expressed in the PM of CHO-K1 cells … (rat, UniProt P33535 1-398).
T1 construct: whole, on cells; also called WT-MOR; MOR-Halo; not shown: Halo tag
The series is described as follows: dependence of the DOR-MOR colocalisation index on the concentration of the soluble peptide (competition on cells).

The target of series [13] is T1, µ-type opioid receptor (MOR), rat, wild …. Kind of series: colocalisation index, two-colour single-molecule imaging in CHO-K1 cells.
Procedure: For simple quantification of the tendencies of OPR heterodimer formation, we employed the colocalisation index, a parameter based on the pair cross-correlation function (PCCF of the green and magenta spots), which is a measure of finding molecule B (for example, a green spot) within a 100 nm radius circle around molecule A (for example, a magenta spot) relative to farther distances of 400-500 nm (as a negative control, the video frames in the green channel were rotated 180° before overlaying; Extended Data FIG. 1-2).

The term koff denotes the rate constant with which the complex falls apart. High values mean a short-lived complex, low ones a long-lived complex. As a reminder, the Kd is the free concentration of one partner at which half of the binding sites on the other are occupied at equilibrium, for simple one-to-one binding. Read a low Kd as a tighter complex.

B1: SNAPf-MOR: rat MOR with the SNAPf tag protein at its N-terminus, expressed in the PM of CHO-K1 cells (Example 2) (receptor, not shown: small tags and cut ends)
chain: SGGGSGGSGGGSGGSGGGSGGMDSSTGPGNTSDCSDPLAQASCSPAPGSWLNLSHVDGNQSDPCGLNRTGLGGNDSLCPQTGSPSMVTAITIMALYSIVCVVGLFGNFLVMYVIVRYTKMKTATNIYIFNLALADALATSTLPFQSVNYLMGTWPFGTILCKIVISIDYYNMFTSIFTLCTMSVDRYIAVCHPVKALDFRTPRNAKIVNVCNWILSSAIGLPVMFMATTKYRQGSIDCTLTFSHPTWYWENLLKICVFIFAFIMPVLIITVCYGLMILRLKSVRMLSGSKEKDRNLRRITRMVLVVVAVFIVCWTPIHIYVIIKALITIPETTFQTVSWHFCIALGYTNSCLNPVLYAFLDENFKRCFREFCIPTSSTIEQQNSTRVRQNTREHPSTANTVDRTNHQLENLEAETAPLP
modifications: SNAPf tag covalently labelled with SNAP-Surface 549 or SNAP-CF660R
notes: whole, on cells; Homodimer partner is the same molecule labelled in the other colour; also called WT MOR
Turning to B1, the “% of copies existing as dimers at ˜1 copy/µm^2, before agonist” value (“% of copies existing as dimers” for short) in [1] was 18%. The same molecule showed a koff in series [2] of 5.35 s⁻¹. For the same molecule, the “Ca^2+ (FMax-Fb)/Fb; + Agonist + FAM-pep-TAT” value (shortened to “Ca^2+ (FMax-Fb)/Fb”) in [3] was 2.78 (FMax-Fb)/Fb. The molecule also yielded a koff in series [4] of 8.47 s⁻¹. Also, in series [5], the “D/M ratio (protomers in dimers vs monomers) at 0.3 copies/µm^2” value (from here on “D/M ratio … at 0.3 copies/µm^2”) is 0.06, the “D/M ratio (protomers in dimers vs monomers) at 1 copies/µm^2” value (“D/M ratio … at 1 copies/µm^2” below) is 0.17, the “D/M ratio (protomers in dimers vs monomers) at 3 copies/µm^2” value (“D/M ratio … at 3 copies/µm^2” for short) is 0.43 and the “D/M ratio (protomers in dimers vs monomers) at 10 copies/µm^2” value (from here on “D/M ratio … at 10 copies/µm^2”) is 1.02. Besides, the “D/M ratio (protomers in dimers vs monomers) at 30 copies/µm^2” value (shortened to “D/M ratio … at 30 copies/µm^2”) in series [5] was 2.03. Moreover, in series [6], the “D/M ratio … at 0.3 copies/µm^2” value was 0.08, the “D/M ratio … at 1 copies/µm^2” value is 0.22, the “D/M ratio … at 3 copies/µm^2” value is 0.54 and the “D/M ratio … at 10 copies/µm^2” value was 1.23. In [6], the “D/M ratio … at 30 copies/µm^2” value is 2.41.

B2: SNAPf-KOR: rat KOR with the SNAPf tag protein at its N-terminus, expressed in the PM of CHO-K1 cells (Example 2) (receptor, not shown: small tags and cut ends)
chain: SGGGSGGSGGGSGGSGGGSGGMESPIQIFRGEPGPTCAPSACLLPNSSSWFPNWAESDSNGSVGSEDQQLEPAHISPAIPVIITAVYSVVFVVGLVGNSLVMFVIIRYTKMKTATNIYIFNLALADALVTTTMPFQSAVYLMNSWPFGDVLCKIVISIDYYNMFTSIFTLTMMSVDRYIAVCHPVKALDFRTPLKAKIINICIWLLASSVGISAIVLGGTKVREDVDVIECSLQFPDDEYSWWDLFMKICVFVFAFVIPVLIIIVCYTLMILRLKSVRLLSGSREKDRNLRRITKLVLVVVAVFIICWTPIHIFILVEALGSTSHSTAVLSSYYFCIALGYTNSSLNPVLYAFLDENFKRCFRDFCFPIKMRMERQSTNRVRNTVQDPASMRDVGGMNKPV
modifications: SNAPf tag covalently labelled with SNAP-Surface 549 or SNAP-CF660R
notes: whole, on cells; Homodimer partner is the same molecule labelled in the other colour; also called WT KOR
Regarding B2, the “% of copies existing as dimers” value in series [1] was 33%. In series [7], the “D/M ratio … at 0.3 copies/µm^2” value was 0.07, the “D/M ratio … at 1 copies/µm^2” value is 0.22, the “D/M ratio … at 3 copies/µm^2” value is 0.52 and the “D/M ratio … at 10 copies/µm^2” value was 1.2. The “D/M ratio … at 30 copies/µm^2” value in series [7] was 2.35. Further, the “Ca^2+ (FMax-Fb)/Fb” value in series [3] was 2.46 (FMax-Fb)/Fb. This molecule also yielded a koff in series [4] of 6.71 s⁻¹. The molecule also came in with a koff in series [8] of 17.9 s⁻¹. Also, in [6], the “D/M ratio … at 0.3 copies/µm^2” value is 0.19, the “D/M ratio … at 1 copies/µm^2” value was 0.5, the “D/M ratio … at 3 copies/µm^2” value is 1.08 and the “D/M ratio … at 10 copies/µm^2” value is 2.28. For the same molecule, in series [6], the “D/M ratio … at 30 copies/µm^2” value was 4.26.

B3: SNAPf-DOR: rat DOR with the SNAPf tag protein at its N-terminus, expressed in the PM of CHO-K1 cells (Example 2) (receptor, not shown: small tags and cut ends)
chain: SGGGSGGSGGGSGGSGGGSGGMEPVPSARAELQFSLLANVSDTFPSAFPSASANASGSPGARSASSLALAIAITALYSAVCAVGLLGNVLVMFGIVRYTKLKTATNIYIFNLALADALATSTLPFQSAKYLMETWPFGELLCKAVLSIDYYNMFTSIFTLTMMSVDRYIAVCHPVKALDFRTPAKAKLINICIWVLASGVGVPIMVMAVTQPRDGAVVCTLQFPSPSWYWDTVTKICVFLFAFVVPILIITVCYGLMLLRLRSVRLLSGSKEKDRSLRRITRMVLVVVGAFVVCWAPIHIFVIVWTLVDINRRDPLVVAALHLCIALGYANSSLNPVLYAFLDENFKRCFRQLCRAPCGGQEPGSLRRPRQATARERVTACTPSDGPGGGAAA
modifications: SNAPf tag covalently labelled with SNAP-Surface 549 or SNAP-CF660R
notes: whole, on cells; Homodimer partner is the same molecule labelled in the other colour; also called WT DOR
On to B3, for which the “% of copies existing as dimers” value in series [1] is 17%. In addition, in series [9], the “D/M ratio … at 0.3 copies/µm^2” value was 0.15, the “D/M ratio … at 1 copies/µm^2” value was 0.4, the “D/M ratio … at 3 copies/µm^2” value is 0.89 and the “D/M ratio … at 10 copies/µm^2” value was 1.92. Moreover, in series [9], the “D/M ratio … at 30 copies/µm^2” value is 3.62. In addition, in series [3], the “Ca^2+ (FMax-Fb)/Fb” value was 2.84 (FMax-Fb)/Fb. Also, the koff in [10] is 3.62 s⁻¹. Besides, in series [11], the “fold of homodimer lifetime against wild-type DOR in the absence of the agonist” value was roughly 1.5 fold. In [4], this molecule came in with a koff of 8 s⁻¹. Moreover, in series [6], the “D/M ratio … at 0.3 copies/µm^2” value was 0.07, the “D/M ratio … at 1 copies/µm^2” value is 0.21, the “D/M ratio … at 3 copies/µm^2” value was 0.5 and the “D/M ratio … at 10 copies/µm^2” value was 1.17. Further, in [6], the “D/M ratio … at 30 copies/µm^2” value is 2.3.

In series [12], SDTFPSAFPSASANASGSPGARS (also called DpepDM(20-42); DpepDM) [Dpep(20-42)DM, soluble peptide with the N-terminal domain sequence aa20-42 of DOR] yielded a Kd of less than 0.1 µM.

B4: κ-type opioid receptor (KOR), rat, wild type, fluorescently tagged, expressed in the PM of CHO-K1 cells (Example 1) (receptor, UniProt P34975 1-380, looked up)
chain: MESPIQIFRGEPGPTCAPSACLLPNSSSWFPNWAESDSNGSVGSEDQQLEPAHISPAIPVIITAVYSVVFVVGLVGNSLVMFVIIRYTKMKTATNIYIFNLALADALVTTTMPFQSAVYLMNSWPFGDVLCKIVISIDYYNMFTSIFTLTMMSVDRYIAVCHPVKALDFRTPLKAKIINICIWLLASSVGISAIVLGGTKVREDVDVIECSLQFPDDEYSWWDLFMKICVFVFAFVIPVLIIIVCYTLMILRLKSVRLLSGSREKDRNLRRITKLVLVVVAVFIICWTPIHIFILVEALGSTSHSTAVLSSYYFCIALGYTNSSLNPVLYAFLDENFKRCFRDFCFPIKMRMERQSTNRVRNTVQDPASMRDVGGMNKPV
notes: whole, on cells; also called WT-KOR; κ-OPR; not shown: fluorescent tag protein
With B4, the binding result in series [13] is “no binding”.
